Where a chain is given by its changes, count along the chain named.
B1: antibody 992 (antibody, human IgG1, kappa, V domains shown)
VH: EVQLQQPGSELVRPGASVKLSCKASGYTFTSYWMHWVKQRPGQGLEWIGNIYPGSRSTNYDEKFKSKATLTVDTSSSTAYMQLSSLTSEDSAVYYCTRNGDYYVSSGDAMDYWGQGTSVTVSS
VL: DIQMTQTTSSLSASLGDRVTISCRTSQDIGNYLNWYQQKPDGTVKLLIYYTSRLHSGVPSRFSGSGSGTDFSLTINNVEQEDVATYFCQHYNTVPPTFGGGTKLEIKR
notes: Chimeric mouse/human IgG1 kappa; the VL entry includes the human kappa constant region
B2: antibody 1260 (antibody, human IgG1, kappa, V domains shown)
VH: QVQLKESGPGLVAPSQSLSITCTVSGFSLTTYGVHWVRQPPGKGLEWLGVIWAGGSTNYNSALMSRLSIKKDNSKSQVFLKMNSLQTDDTAMYYCARAYGYNFDYWGQGTTLTVSS
VL: DIQMTQTTSSLSASLGDRVTISCSASQGITNYLNWYQQKPDGTVKLLIYYSSSLHSGVPSRFSGSGSGTDYSLTISNLEPEDIATYYCQQYSEIPYTFGGGTKLELKR
notes: Chimeric IgG1 kappa
B3: antibody 1257 (antibody, human IgG1, kappa, V domains shown)
VH: EVQLQQSGPELVKPGASVKIPCKTSGYTFTDYNMAWVKQSHGKSLEWIGDIIPNNGGAIYNQKFKGKATLTVDKSSSTASMELRSLTSEDTAVYFCARKNIYYRYDGAGALDYWGQGTSVTVSS
VL: QIVLTQSPAIMSASPGEKVTMTCSASSSVSYIYWYQQKPGSSPRLLIYDASNLASGVPVRFSGSGSGTSYSLTISRMEAEDAATYYCQQWSSYPITFGSGTKLEIKR
notes: Chimeric IgG1 kappa
B4: antibody 1024 (antibody, human IgG1, kappa, V domains shown)
VH: QVQLQQPGAELVEPGGSVKLSCKASGYTFTSHWMHWVKQRPGQGLEWIGEINPSSGRNNYNEKFKSKATLTVDKSSSTAYMQFSSLTSEDSAVYYCVRYYGYDEAMDYWGQGTSVTVSS
VL: DIVMTQAAFSNPVTLGTSASISCRSSKSLLHSNGITYLYWYLQKPGQSPQLLIYQMSNLASGVPDRFSSSGSGTDFTLRISRVEAEDVGVYYCAQNLELPYTFGGGTKLEIKR
notes: Chimeric IgG1 kappa
B5: antibody 1208 (antibody, human IgG1, kappa, V domains shown)
VH: EVQLVESGGGLVKPGGSLKLSCAASGFAFSSYDMSWVRQTPEKRLEWVAYIGSGDDNTHYPDSVKGRFTISRHNAKNTLYLQMSSLKSEDTAMYYCARQKYGNYGDTMDYWGQGTSVTVSS
VL: DVVMTQTPLSLPVSLGDQASISCRSSQSLVHSNGNTYLHWYLQKPGQSPKLLIYKVSNRFSGVPDRFSGSGSGTDFTLKISRVEAEDLGVYFCSQSTHVPTFGGGTKLEIKR
notes: Chimeric IgG1 kappa; also called clone 1208
B6: antibody 1344 (antibody, human IgG1, kappa, V domains shown)
VH: B2 VH with T31I, S56N, K70S, Y94F, A98G, F103L
VL: B2 VL with T30S, S51T, E93K, I94L, L106I
notes: Chimeric IgG1 kappa
B7: antibody 1308 (antibody, human IgG1, kappa, V domains shown)
VH: EVQLQQSGAELVRPGSSVKISCKASGYAFSSYWMNWVRQRPGQGLEWIGQIYPGDGDTNYNGKFKGRATLTANKSSSTAYMQLSSLTSEDSAVYFCARRASSLYDVYPYYFDYWGQGTTLTVSS
VL: DIQMTQTTSSLSASLGDRVTISCRASQDISNYLNWYQQKPDGTVKVLIYYTSRLHSGVPSRFSGSGSGTDYSLTISNLEQEDIATYFCQQGNTLPYTFGGGTKLEIKR
notes: Chimeric IgG1 kappa
B8: antibody 1347 (antibody, human IgG1, kappa, V domains shown)
VH: QVQLKESGPGLVAPSQSLSITCTVSGFSLTGHGVNWVRQPPGKGLEWLGMIWGDGSTDYNSTLKSRLSISKDNSKSQVFLKMNSLQTDDTARYYCARGYGYLYYFDYWGQGTTLTVSS
VL: ENVLTQSPAIMSASPGEKVTMTCRASSSVSSSYLHWYQQKSGASPKLWIYSTSNLASGVPARFSGSGSGTSYSLTVNSVETEDAATYYCHQYSGFPFTFGSGTKLELKR
notes: Chimeric IgG1 kappa

Target: T1, recombinant human EGFR extracellular domain with 6xHis (human, UniProt P00533 25-645)
T1 construct: In-house produced; also called 6xHis EGFR ECD; soluble human EGFR ECD; not shown: 6xHis tag
Assay: SPR competition, competitor 1449
Protocol: (§1) SPR analysis was performed on a Biacore 3000 machine containing four flow cells. A CM5 Biacore chip was conjugated with 10,000 Resonance units (Ru) polyclonal anti-His antibody to flow cells 1-4 according to the manufacturer's instructions. […] Immediately after antigen injection the maximal binding of the Anti-EGFR mAb without competition was established in each flow cell during a reference run. Briefly 5 μl antibody at a concentration of 40 μg/ml was injected over all flow cells with captured EGFR followed by stripping of the antibody/antigen complex with a low pH acid wash (10 sec. contact time with 10 mM Glycine-HCl, pH2). After the determination of Anti-EGFR antibody maximal binding to each flow cell, a competition run was performed during the same Biacore cycle. Flow cells were first saturated with EGFR ECD antigen followed by injection of different reference antibodies or Anti-EGFR antibodies into separate flow cells using the same antigen saturating conditions as outlined above. This step was immediately followed by a second injection of Anti-EGFR antibody over the flow cell saturated with EGFR antigen and competition antibody to minimize the dissociation of either antigen or blocking antibody. Then the antibody/antigen complexes were stripped off with a low pH acid wash (10 sec. contact time with 10 mM Glycine-HCl, pH 2) and the whole cycle beginning with the reference run was repeated with a new Anti-EGFR antibody. The degree of inhibition of tested Anti-EGFR antibodies were determined by comparing the Ru max value of the individual Anti-EGFR antibody before and after competition by introduction of report points recorded two seconds before and after injection of each sample.

% inhibition [%]	Binder
98	B1
29	B2
15	B3
78	B4

Target: T2, wild type full length EGFR purified from A431 cells (human, UniProt P00533 25-1210)
T2 construct: mature; Bought; coated on ELISA wells; also called full length EGFR receptor antigen; Sigma E3641
Assay: competition ELISA, competitor Ab-3
Set-up: concentration or dose not given beside the values
Protocol: (§2) The ELISA was adapted from the descriptions published in Ditzel et al, 1995, The Journal of Immunology, Vol 154, Issue 2 893-906.
(§3) An epitope blocking ELISA was performed by diluting full length EGFR receptor antigen to 0.5 μg/ml in PBS; and coating 50 μl/ELISA well overnight at 4° C. […] Finally wells were washed four times with PBS-T and plates were developed by adding 50 μl/well TMB and read at 620 nm every 5-15-30 min. The degree of inhibition was calculated from the formula: % inhibition=(1−(OD competition/OD no competition (PBS)))×100.

% inhibition [%]	Binder
-10	B5
-21	B1
40	B6
19	B7
12	B2
77	B3
11	B4

Target: T2, wild type full length EGFR purified …
Assay: competition ELISA, competitor Ab-10
Set-up: concentration or dose not given beside the values
Protocol: as §2, §3

% inhibition [%]	Binder
89	B5
-14	B1
36	B6
12	B7
24	B2
33	B3
27	B4

Target: T2, wild type full length EGFR purified …
Assay: competition ELISA, competitor ICR10
Set-up: concentration or dose not given beside the values
Protocol: as §2, §3

% inhibition [%]	Binder
-21	B5
-20	B1
82	B6
71	B7
90	B2
78	B3
11	B4

Target: T1, recombinant human EGFR extracellular …
Assay: SPR competition, competitor 1308
Protocol: as §1

% inhibition [%]	Binder
5	B5
-9	B1
73	B6
75	B7
27	B3
-3	B4
82	B8

Target: T2, wild type full length EGFR purified …
Assay: competition ELISA, competitor Ab-1
Set-up: concentration or dose not given beside the values
Protocol: as §2, §3

% inhibition [%]	Binder
82	B5
78	B1
19	B6
4	B7
12	B2
6	B3
3	B4

Target: T3, Cynomolgus EGFR extracellular domain (Cynomolgus monkey (Macaca fascicularis), UniProt P55245 25-645 (rhesus entry))
T3 construct: Cloned without signal peptide; also called Cynomolgus rEGFR ECD; Cynomolgus EGFR ECD
Assay: ELISA on cynomolgus EGFR ECD (Example 10)
Protocol: To verify that tested Anti-EGFR antibodies bound equally well to both Human and Cynomolgus EGFR ECD and accordingly warranting toxicology studies in Cynomolgus monkeys, serial four fold dilutions of antibodies beginning from 1 μg/ml were tested by ELISA for binding to recombinant Human and Cynomolgus EGFR ECD proteins. […] ELISA wells were coated with 50 μl/well of full length EGFR at a concentration of 1 μg/ml in PBS overnight at 4° C. The next morning wells were washed twice with PBS-T and blocked for one hour with 100 μl PBS-T-1% BSA at room temperature, followed by wash twice in PBS-T. Next 50 μl of serially diluted Anti-EGFR antibodies and control antibodies were added to wells and incubated for one hour at room temperature. After antibody incubation wells were washed five times with PBS-T, followed by incubation with 50 μl/well Streptavidin-HRP secondary reagent diluted 1:3000 in blocking buffer and incubation at room temperature for 30 min. Finally wells were washed five times with PBS-T and plates were developed by adding 50 μL/well TMB substrate and incubated at room temperature. After incubation the reaction was stopped by addition of 1 M H₂SO₄; 100 μl/well and plates were read at OD 450 nm.

binding result	Binder
binds	B6
binds	B7
binds	B2
binds	B3
binds	B8

Target: T1, recombinant human EGFR extracellular …
Assay: SPR competition, competitor 1042
Protocol: as §1

% inhibition [%]	Binder
9	B5
21	B1
31	B2
16	B3
71	B4

Target: T2, wild type full length EGFR purified …
Assay: competition ELISA, competitor Ab-11
Set-up: concentration or dose not given beside the values
Protocol: as §2, §3

% inhibition [%]	Binder
-3	B5
-2	B1
82	B6
91	B7
92	B2
92	B3
18	B4

Target: T2, wild type full length EGFR purified …
Assay: competition ELISA, competitor Ab-5
Set-up: concentration or dose not given beside the values
Protocol: as §2, §3

% inhibition [%]	Binder
84	B5
-3	B1
28	B6
0	B7
17	B2
25	B3
12	B4

Target: T2, wild type full length EGFR purified …
Assay: competition ELISA, competitor Ab-2
Set-up: concentration or dose not given beside the values
Protocol: as §2, §3

% inhibition [%]	Binder
20	B5
77	B1
14	B6
11	B7
8	B2
37	B3
75	B4

Target: T1, recombinant human EGFR extracellular …
Assay: SPR (BIAcore 2000); IgG captured on anti-human Fc, soluble monovalent EGFR ECD injected
Protocol: Kinetic analysis of the full length IgG antibodies of the invention was performed on a BIAcore 2000, employing an assay as described in (Canziani, Klakamp, et al. 2004, Anal. Biochem, 325:301-307) allowing measurement of monovalent affinities of whole IgG molecules against soluble antigen. […] The chip surface was regenerated in between cycles by stripping the captured antibody/antigen complexes with a 10 second injection of 100 mM H₃PO₄. […] The association rate constant (ka) and dissociation constant (kd) were evaluated globally from the generated sensograms with the BIA evaluation software 4.1 provided by the manufacturer.

t1/2 [min]	Kd [nM]	koff [s⁻¹]	kon [M⁻¹ s⁻¹]	Binder
0.2				B1
74.1	4.2	0.00016	37000	B2
2.4	26.7	0.0049	180000	B4
22.9	21.4	0.0005	24000	B8

Source: patent US20110135636A1 (SYMPHOGEN A S, published 2011)
